Test system: GST-p180-Lys (p180 lysine-rich region)
Test: EMSA
Conditions: PBS with 10 ug/ml denatured yeast tRNA, room temperature, 20 min; native 10% PAGE (19:1) in TBE; pH not stated

human insulin SSCR RNA
Kd: 0.8 µM

From article PMC3362647
